In the RNAGym collection of RNA variant scans (doi:10.1093/nar/gkz1192):

B1: CPEB3 Ribozyme (parent)
chain: UAACAGGGGGCCACAGCAGAAGCGUUCACGUCGCAGCCCCUGUCAGAUUCUGGUGAAUCUGCGAAUUCUGCUGUAUAUCUC

Variants of: B1
Test: self-cleavage, relative activity (ratio to wild type); higher = more cleavage; in vitro, sequencing
Summary of the method: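 Libraries of CPEB3 self-cleaving ribozyme mutants came from rounds of error-prone PCR and carried barcodes, which DNA sequencing matched to variants. In vitro transcription used T7 RNA polymerase at 37°C for 5 hours, with a further 15 min in DNase I before EDTA stopped the reaction; the ribozymes cleaved during both steps. The RNA was reverse transcribed with template switching and sequenced on Illumina. Relative activity is the cleaved/total read fraction of a variant divided by that of the unmutated ribozyme, averaged over three batches with at least 5 reads.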

Compared with A56G A75U, A56G A75G is lower in self-cleavage: 0.95 for the first, 0.64 for the second.

First: A56G A75C
Second: A56U C62U
The self-cleavage of the first is higher: 1.12 for the first, 0.21 for the second.

Going from A57C G63A to A56G U60C, the self-cleavage falls from 0.58 to 0.42.

Going from A56G U60A to A56G U60G, the self-cleavage falls from 0.41 to 0.34.

Compared with A56G U74C, A56G U74A is lower in self-cleavage: 1.12 for the first, 1.11 for the second.

Going from A57G C59U to A57G C59A, the self-cleavage falls from 0.83 to 0.2.

First: A57G C59G
Second: A57G C62U
The self-cleavage of the first is lower: 0.21 for the first, 0.33 for the second.

First: A56U G70A
Second: A56U G70U
The self-cleavage of the first is higher: 0.35 for the first, 0.21 for the second.

Compared with A56U A57G, A56U A57U is higher in self-cleavage: 0.47 for the first, 0.59 for the second.

Going from A57G G63A to A56U U74C, the self-cleavage rises from 0.84 to 1.06.

Going from A56U U74A to A57C C62U, the self-cleavage falls from 1.17 to 0.14.

Compared with A56G U72A, A56G U72G is lower in self-cleavage: 0.64 for the first, 0.63 for the second.

Compared with A56G U72C, A56G A65G is lower in self-cleavage: 0.93 for the first, 0.32 for the second.

Going from A56G A65U to A56G A77G, the self-cleavage rises from 0.25 to 0.77.

Compared with A56G A77U, A56G A77C is lower in self-cleavage: 0.99 for the first, 0.79 for the second.

First: A56U U72A
Second: A56U U72C
The self-cleavage of the first is lower: 0.46 for the first, 0.81 for the second.

Compared with A56U U72G, A57C A64U is lower in self-cleavage: 0.5 for the first, 0.44 for the second.

Going from A57C A64G to A57G G70A, the self-cleavage rises from 0.34 to 0.49.

Compared with A57G G70C, A56G C81A is higher in self-cleavage: 0.22 for the first, 0.96 for the second.

First: A56G C81U
Second: A56G C81G
The self-cleavage of the first is lower: 1.13 for the first, 1.22 for the second.

Compared with A57C A75U, A57C U78C is higher in self-cleavage: 0.58 for the first, 0.66 for the second.

First: A57C U78A
Second: A56G G63A
The self-cleavage of the first is lower: 0.4 for the first, 0.97 for the second.

First: A56G G63U
Second: A57G C71U
The self-cleavage of the first is higher: 1.03 for the first, 0.32 for the second.

First: A57G A75G
Second: A57G A75U
The self-cleavage of the first is lower: 0.74 for the first, 1.01 for the second.

Compared with A56U U80A, A56U U80C is lower in self-cleavage: 1 for the first, 0.83 for the second.

Going from A57G A77G to A57G A77U, the self-cleavage rises from 0.87 to 0.9.

First: A56G U58C
Second: A56G U58A
The self-cleavage of the first is higher: 0.38 for the first, 0.32 for the second.

First: A56G U58G
Second: A56U
The self-cleavage of the first is lower: 0.22 for the first, 0.74 for the second.

Going from A56U U78G to A56U U78A, the self-cleavage rises from 0.58 to 0.95.

Compared with A56U U78C, A56U U58A is lower in self-cleavage: 0.61 for the first, 0.31 for the second.

First: A56U U58C
Second: A56U U58G
The self-cleavage of the first is higher: 0.3 for the first, 0.18 for the second.

Going from A57G C81G to A57G C81U, the self-cleavage falls from 1.2 to 1.13.

Going from A57C U58C to A56U G63A, the self-cleavage rises from 0.3 to 0.48.

Compared with A56U G63C, A56U U66C is lower in self-cleavage: 0.61 for the first, 0.32 for the second.

A56U U66A and A56G G70U are the same in self-cleavage: 0.25 for the first, 0.25 for the second.

First: A56G G70C
Second: A56G G70A
The self-cleavage of the first is lower: 0.21 for the first, 0.49 for the second.

Compared with A56U C81A, A56G G61A is lower in self-cleavage: 1.2 for the first, 0.63 for the second.

First: A56G G61U
Second: A56U U67C
The self-cleavage of the first is higher: 0.62 for the first, 0.26 for the second.

Going from A56U U67G to A56U U67A, the self-cleavage rises from 0.16 to 0.43.

Going from A56G U66G to A56G U66A, the self-cleavage rises from 0.38 to 0.44.

First: A56G U66C
Second: A56G C59A
The self-cleavage of the first is higher: 0.29 for the first, 0.23 for the second.

Compared with A56G C59U, A56G C59G is lower in self-cleavage: 0.52 for the first, 0.21 for the second.

First: A57G C68G
Second: A57G C68U
The self-cleavage of the first is lower: 0.4 for the first, 0.77 for the second.

Compared with A56G U80C, A56G U80A is higher in self-cleavage: 0.84 for the first, 0.92 for the second.

Going from A56G U80G to A56U G73A, the self-cleavage rises from 0.99 to 1.18.

Going from A56U A64U to A56U A64G, the self-cleavage rises from 0.28 to 0.51.

Compared with A56U A64C, A56U U60G is higher in self-cleavage: 0.19 for the first, 0.24 for the second.

First: A56U U60C
Second: A56U U60A
The self-cleavage of the first is lower: 0.27 for the first, 0.3 for the second.

Going from A56U C79A to A56U A75U, the self-cleavage falls from 1.12 to 0.79.

First: A56U A75G
Second: A57G A64U
The self-cleavage of the first is higher: 0.54 for the first, 0.36 for the second.

First: A57G A64G
Second: A56G G73C
The self-cleavage of the first is lower: 0.81 for the first, 1.26 for the second.

Going from A56G G73U to A57G U66A, the self-cleavage falls from 1.15 to 0.37.

Going from A57G U66C to A56U A77U, the self-cleavage rises from 0.4 to 0.73.

Compared with A56U A77C, A56U A77G is higher in self-cleavage: 0.62 for the first, 0.71 for the second.

Going from A56G C79A to A56G C79G, the self-cleavage falls from 1.18 to 1.16.

Going from A56G U69C to A56G U69A, the self-cleavage rises from 0.43 to 0.5.

Compared with A56G U69G, A57C A65G is lower in self-cleavage: 0.54 for the first, 0.17 for the second.

First: A57C U60A
Second: A57C G61C
The self-cleavage of the first is lower: 0.14 for the first, 0.16 for the second.

Going from A56G U76A to A56G U76C, the self-cleavage falls from 1.07 to 0.85.

Compared with A56G C68A, A56G C68U is higher in self-cleavage: 0.32 for the first, 0.77 for the second.

Compared with A57C A77G, A57G U58G is lower in self-cleavage: 0.45 for the first, 0.22 for the second.

Compared with A57G U58C, A57G U58A is lower in self-cleavage: 0.33 for the first, 0.28 for the second.

Going from A57G A65G to A57G A65U, the self-cleavage falls from 0.37 to 0.32.

Compared with A57G A65C, A56G C71U is higher in self-cleavage: 0.15 for the first, 0.51 for the second.

Compared with A56U U69C, A56U U69G is higher in self-cleavage: 0.38 for the first, 0.46 for the second.

Going from A56U U69A to A56U G61A, the self-cleavage falls from 0.33 to 0.29.

Compared with A56G U78A, A56G U78C is lower in self-cleavage: 0.91 for the first, 0.73 for the second.

Compared with A56G U78G, A56U C68U is lower in self-cleavage: 0.96 for the first, 0.55 for the second.

Compared with A57C U66C, A57C U66A is higher in self-cleavage: 0.16 for the first, 0.2 for the second.

First: A57G G73U
Second: A57G G73A
The self-cleavage of the first is lower: 1.15 for the first, 1.25 for the second.

Compared with A57G U60A, A57G U60C is higher in self-cleavage: 0.4 for the first, 0.42 for the second.

Compared with A57G U60G, A56G U67A is higher in self-cleavage: 0.26 for the first, 0.46 for the second.

Going from A56G U67C to A56U U76C, the self-cleavage rises from 0.3 to 0.8.

First: A56U U76A
Second: A56U U76G
The self-cleavage of the first is lower: 0.84 for the first, 0.89 for the second.

Compared with A56U A65U, A56U A65G is higher in self-cleavage: 0.21 for the first, 0.29 for the second.

First: A57C U80C
Second: A56G C62G
The self-cleavage of the first is higher: 0.67 for the first, 0.2 for the second.

Compared with A56G C62A, A56G C62U is higher in self-cleavage: 0.23 for the first, 0.31 for the second.

Compared with A57G, A57C is lower in self-cleavage: 0.96 for the first, 0.48 for the second.

Compared with A56U C59G, A56U C59U is higher in self-cleavage: 0.13 for the first, 0.19 for the second.

Going from A56U C59A to A57C U67C, the self-cleavage falls from 0.28 to 0.27.

Going from A57G C79A to A57G C79U, the self-cleavage rises from 0.73 to 1.1.

A56U C71G and A56U C71A are the same in self-cleavage: 0.26 for the first, 0.26 for the second.

First: A56U C71U
Second: A57G G61U
The self-cleavage of the first is lower: 0.46 for the first, 0.64 for the second.

Variant A57G G61A has a self-cleavage of 0.59.
